Measurements from PMC8124061.
“And” between values parts separate entries of the source, which are not always exact repeats. Equal values may be shown once.

Tests used:
[1] = molecular target: F1FO ATP synthase (complex V) of Euglena gracilis mitochondria (Euglena gracilis (endogenous in mitochondria)); assay: native gel or EMSA; two-dimensional BN/BN-PAGE of digitonin-solubilised mitochondria; second BN-PAGE with 0.02% DDM in the cathode buffer, which dissociates the supercomplexes; NADH-dehydrogenase activity stain
[2] = molecular target: F1FO ATP synthase (complex V) of Euglena gracilis mitochondria (Euglena gracilis (endogenous in mitochondria)); assay: native gel or EMSA; BN-PAGE, 3-10% acrylamide gradient with 0.05% digitonin, of mitochondria solubilised with digitonin 8.0 g/g protein (6.4% w/v; up to 12 g/g), 4 °C; Coomassie and in-gel NADH-dehydrogenase and ATPase activity
[3] = molecular target: F1FO ATP synthase (complex V) of Euglena gracilis mitochondria (Euglena gracilis (endogenous in mitochondria)); assay: native gel or EMSA; BN-PAGE, 3-10% acrylamide gradient, of mitochondria solubilised with DDM 4.0 g/g protein (3.2% w/v), 4 °C, pH 8.4, 100 mM NaCl; Coomassie and in-gel NADH-dehydrogenase and ATPase activity
[4] = molecular target: F1FO ATP synthase (complex V) of Euglena gracilis mitochondria (Euglena gracilis (endogenous in mitochondria)); assay: native gel or EMSA; purified dimeric ATP synthase incubated with DDM at room temperature for 10 min; species assigned by size; kind of gel not told in the legend
[5] = molecular target: F1FO ATP synthase (complex V) of Euglena gracilis mitochondria (Euglena gracilis (endogenous in mitochondria)); assay: native gel or EMSA; BN-PAGE, 3-10% acrylamide gradient, of mitochondria solubilised with DDM 4.0 g/g protein (3.2% w/v), 4 °C, pH 8.4, 100 mM NaCl; Coomassie and in-gel NADH-dehydrogenase and ATPase activity; remark: listed apart in the source
[6] = molecular target: dimeric ubiquinol:cytochrome c oxidoreductase (complex III, III2) of Euglena gracilis mitochondria (Euglena gracilis (endogenous in mitochondria)); assay: native gel or EMSA; two-dimensional BN/SDS Tricine-PAGE (12%) of digitonin-extracted complexes; subunits told by their electrophoretic profile

Q: For “F1FO ATP synthase (complex V) of Euglena gracilis mitochondria”, which stoichiometry N [1] is on record?
A: Its stoichiometry N is 4.

Q: And the stoichiometry N [2]?
A: Its stoichiometry N is 2 and 4.

Q: What about the stoichiometry N [3] of the same substance?
A: Its stoichiometry N is 2.

Q: What about the stoichiometry N [4] of the same substance?
A: Its stoichiometry N is 2.

Q: And the stoichiometry N [5]?
A: The stoichiometry N was 4.

Q: “cytochrome c oxidase (complex IV) of Euglena gracilis mitochondria” was tested. Which stoichiometry N [6] did it give?
A: Its stoichiometry N is 1 and 2.
